Results: patent publication US7019108B2, “Method and composition for inhibition of angiogenesis and tumor growth using compounds based on a sequence within MMP-2” (priority 2001, dated 2006)
No end group written: not given here.

How the values were obtained:
Assay type in all cases: in vivo
[1] = system: M21 human melanoma tumor cells; experiment: M21 human melanoma tumor growth in nude mice, systemic Pexstatin; settings: female nude mice, daily injections of 100 μg
Procedure: M21 human melanoma tumor cells (2×10^6) were injected subcutaneously into female nude mice. Twenty four hours later the mice were treated daily with injections of 100 μg of Pexstatin MMP-2 peptide or PBS controls. Tumor sizes were monitored daily by caliper measurements. Data bars represent the mean tumor volume+the standard errors at each time point. Tumor volumes were estimated using the formula V=L2×W/2, V=volume, L=length, and W=width.

[2] = system: βFGF induced angiogenesis; experiment: βFGF induced angiogenesis in the chick CAM assay, systemic Pexstatin; settings: 3 day incubation
Procedure: A). Filter discs saturated with βFGF were placed on the CAMs of 10 day old chick embryos. Twenty four hours later, the embryos received a single intravenous injection with 50 μg of Pexstatin, control peptide or PBS. At the end of a 3 day incubation period the filter discs and surrounding CAM tissue were removed and angiogenesis was quantified by counting the number of blood vessel branch points within the area of the filter disc.
B). FIG. 4 illustrates the quantification of the angiogenesis experiment with Pexstatin. Data bars represent the mean+standard errors of 5 to 10 embryos per condition. The angiogenesis index is equal to the number of branch points from experimentally treated embryos minus the number of branch points from CAMs in the absence of βFGF.

[3] = system: CS-1 melanoma tumor cells; experiment: CS-1 melanoma tumor growth on the CAM of chick embryos, systemic Pexstatin
Procedure: CS-1 melanoma tumor cells (5×10^6) were inoculated on the Chorioallantoic Membranes (CAMs) of 10 day old chick embryos. Twenty four hours latter the embryos received a single intravenous injection of 50 μg of Pexstatin peptide or PBS control. At the end of a 7 day incubation period the resulting tumors were resected and wet weights determined. Data bars represent the mean±the standard errors of the tumor weight from 5 to 10 embryos per condition.

[4] = system: B16 melanoma tumor cells; experiment: Chick embryo experimental metastasis model, B16 melanoma; settings: 10 μg/embryo inoculated intravenously with the tumor cells, 12 day old chick embryos, 7 day incubation
Procedure: To examine the effects of Pexstatin on melanoma tumor metastasis in vivo, the chick embryo experimental metastasis model was utilized. Briefly, B16 melanoma tumor cells (2.5×10^4) were inoculated intravenously with Pexstatin (10 μg/embryo) or a control peptide in 12 day old chick embryos. In addition, a no treatment control was also added (NT). The Embryos were allowed to incubate for a total of 7 days. At the end of a 7 day incubation period the embryos were sacrificed and the lungs were removed for analysis. The number of melanoma lung lesions were counted for each lobe of the lung. Data bars represent the mean+the standard errors of the metastatic lung lesions from 5 to 10 embryos per condition.

Question: With “CIFAGDKFWRC (cysteine pairing not given here) [Pexstatin, eleven amino acid peptide based on MMP-2 positions 582–590 flanked by cysteine residues]” as the sequence, how does the “toxic side effects during the assay period” value [1] read?
Answer: no toxic side effects were noted

Question: And the “toxic side effects in the embryos during the assay period” value ([2]; chick embryo, single i.v. 50 μg)?
Answer: no toxic side effects were noted

Question: What about the “inhibition of βFGF induced angiogenesis (angiogenesis index, branch points) as compared to controls” value ([2]; single intravenous injection of 50 μg, chick CAM) of the same sequence?
Answer: approximately 90%

Question: And the “toxic side effects during the assay period” value ([3]; chick embryo, single i.v. 50 μg, 7 day incubation)?
Answer: no toxic side effects were noted

Question: And the “inhibition of CS1 melanoma tumor growth (tumor wet weight) as compared to controls” value ([3]; single intravenous injection of 50 μg, 24 h after inoculation, within 7 days, chick embryo CAM)?
Answer: approximately 60%

Question: What about the “inhibition of experimental B16 melanoma metastasis (lung lesions) as compared to controls” value [4] of the same sequence?
Answer: approximately 80%
